Assay results as given in the supplement of paper PMC7125110.
± gives the standard error. For some assays here: Fewer inactive variants are shown than the library holds.

B1: glmS ribozyme (parent)
chain: AUAAAAGCGCCAGAACUACAGAAAUGUAGUUGACGAGGAGGAGGUUUAUCGAAUUUUCGGCGGAUGCCUCCAAA

Tests used:
Settings in all cases: with glucosamine-6-phosphate
[1] = variants of: B1; experiment: kcat; higher = faster cleavage; RNA array
Outline: (§1)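 Barcoded ribozyme variants were transcribed in situ on sequenced MiSeq chips by E. coli RNA polymerase. At 37 °C, a hybridised Cy3 probe tracked them while glucosamine-6-phosphate (40 μM to 10 mM) in HEPES/KCl/Mg(OAc)2 buffer flowed in and tiles were imaged over ~14 h. Per-tile medians of signals normalised to baseline and to non-cleaving reference variants were fit to one- or two-exponential decays, giving kobs. kcat and KM came from weighted Michaelis–Menten fits across concentrations.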

[2] = variants of: B1; experiment: KM; higher = weaker cofactor use; RNA array
Outline: as §1

[3] = variants of: B1; experiment: self-cleavage kobs at 40 uM GlcN6P; higher = faster cleavage; RNA array
Outline: as §1

[4] = variants of: B1; experiment: self-cleavage kobs at 160 uM GlcN6P; higher = faster cleavage; RNA array
Outline: as §1

[5] = variants of: B1; experiment: self-cleavage kobs at 640 uM GlcN6P; higher = faster cleavage; RNA array
Outline: as §1

[6] = variants of: B1; experiment: self-cleavage kobs at 2500 uM GlcN6P; higher = faster cleavage; RNA array
Outline: as §1

[7] = variants of: B1; experiment: self-cleavage kobs at 10000 uM GlcN6P; higher = faster cleavage; RNA array
Outline: as §1

Row | Variant | kcat [1] [s⁻¹] | KM [2] [µM] | self-cleavage kobs at 40 uM GlcN6P [3] [s⁻¹] | self-cleavage kobs at 160 uM GlcN6P [4] [s⁻¹] | self-cleavage kobs at 640 uM GlcN6P [5] [s⁻¹] | self-cleavage kobs at 2500 uM GlcN6P [6] [s⁻¹] | self-cleavage kobs at 10000 uM GlcN6P [7] [s⁻¹]
1 | C16G A53G | 0.00701 ± 0.0012 | 2160 ± 510 | 0.000168 ± 3.2e-05 | 0.000453 ± 7.3e-05 | 0.00151 ± 0.00025 | 0.00339 ± 0.00099 | 0.0061 ± 0.0011
2 | C10U G32A | 2.81e-05 ± 1.1e-06 | – | < 1e-05 | – | – | 2.53e-05 ± 9.9e-06 | 2.81e-05 ± 7.9e-06
3 | C16G C68G | 1.82e-05 ± 5.5e-06 | – | – | – | – | – | –
4 | G29A A64C | < 1e-05 | – | < 1e-05 | < 1e-05 | – | – | –
5 | A53C A64C | 8.21e-05 ± 2.3e-05 | – | – | – | – | – | 6.96e-05 ± 1.6e-05
6 | A33G G38U | – | 47.2 ± 22 | – | – | – | – | –
7 | A15G U54A | – | 508 ± 200 | 0.000663 ± 0.00011 | 0.00251 ± 0.00049 | 0.006 ± 0.0015 | 0.00683 ± 0.0018 | 0.0333 ± 0.014
8 | G37C G40U | – | 5820 ± 2300 | – | – | – | – | –
9 | G38U C71A | – | 35.8 ± 15 | – | – | – | – | –
10 | A39U A52C | – | 2300 ± 420 | – | – | – | – | –
11 | A14G U31C | – | 891 ± 450 | 0.0012 ± 0.00019 | 0.00337 ± 0.00062 | 0.00963 ± 0.0011 | 0.0154 ± 0.0043 | 0.05 ± 0.013
12 | U56C G62A | – | 135 ± 63 | – | – | – | – | –
13 | A36C G51U | – | 10.4 ± 3.3 | – | – | – | – | –
14 | U54A C61A | – | 864 ± 400 | – | – | – | – | –
15 | U31A U45A | – | 813 ± 360 | 0.000743 ± 0.0001 | 0.00207 ± 0.00071 | 0.00537 ± 0.0013 | 0.0106 ± 0.0024 | 0.0333 ± 0.01
16 | G13U A48C | – | 3030 ± 610 | – | – | – | – | –
17 | C11A A33U | – | 983 ± 40 | – | – | – | – | –
18 | A12U G66A | – | 278 ± 130 | 0.0012 ± 0.00016 | 0.00266 ± 0.0007 | 0.00776 ± 0.002 | 0.00745 ± 0.0017 | 0.0359 ± 0.012
19 | G7A C16A | – | 275 ± 120 | – | – | – | – | –
20 | G40A G59A | – | 1080 ± 65 | – | – | – | – | –
21 | U47A A64G | – | 787 ± 380 | 0.000468 ± 8.5e-05 | 0.00141 ± 0.00037 | 0.00552 ± 0.0012 | 0.00614 ± 0.0013 | 0.0238 ± 0.0074
22 | G51U U65G | – | 63.4 ± 18 | – | – | – | – | –
23 | G35U G51U | – | 31.5 ± 11 | – | – | – | – | –
24 | G40U C58G | – | 4730 ± 1300 | – | – | – | – | –
25 | A36U | – | 584 ± 170 | – | – | – | – | –
26 | G29U G51U | – | 40.3 ± 12 | – | – | – | – | –

Row | Variant | kcat [1] [s⁻¹] | KM [2] [µM] | self-cleavage kobs at 40 uM GlcN6P [3] [s⁻¹] | self-cleavage kobs at 160 uM GlcN6P [4] [s⁻¹] | self-cleavage kobs at 640 uM GlcN6P [5] [s⁻¹] | self-cleavage kobs at 2500 uM GlcN6P [6] [s⁻¹] | self-cleavage kobs at 10000 uM GlcN6P [7] [s⁻¹]
27 | A42U G59A | – | 145 ± 23 | – | – | – | – | –
28 | A33U G38U A42U U56C G63U | – | – | < 1e-05 | – | – | – | < 1e-05
29 | C11G G37C | – | – | < 1e-05 | – | – | – | < 1e-05
30 | G38U U45C | – | – | < 1e-05 | < 1e-05 | < 1e-05 | < 1e-05 | < 1e-05
31 | U45C C61G | – | – | < 1e-05 | < 1e-05 | < 1e-05 | < 1e-05 | < 1e-05
32 | C11A C70U C71G | – | – | 4.85e-05 ± 1.9e-05 | – | – | – | 3.22e-05 ± 1.6e-05
33 | A6U C34U C58U | – | – | < 1e-05 | – | – | – | –
34 | G29U G62C | – | – | < 1e-05 | – | < 1e-05 | < 1e-05 | < 1e-05
35 | G9U G32A A53C U55G G63U | – | – | < 1e-05 | – | – | – | –
36 | A36C G37A G59C C71U | – | – | < 1e-05 | – | – | < 1e-05 | < 1e-05
37 | G40C U54G U56G | – | – | 4.04e-05 ± 1.9e-05 | – | – | 0.000625 ± 0.00018 | 0.000719 ± 0.00012
38 | C10A U45G G63U | – | – | < 1e-05 | – | – | – | < 1e-05
39 | G7C G9C A15U | – | – | < 1e-05 | – | – | – | < 1e-05
40 | G13U C58A | – | – | 4.24e-05 ± 1.8e-05 | 7.4e-05 ± 1.6e-05 | 0.000326 ± 5.2e-05 | 0.000524 ± 8.1e-05 | 0.00176 ± 0.00026
41 | A14U C34G | – | – | < 1e-05 | < 1e-05 | < 1e-05 | – | < 1e-05
42 | G7A G40C | – | – | < 1e-05 | < 1e-05 | < 1e-05 | < 1e-05 | –
43 | G7C C16G A52G | – | – | < 1e-05 | – | < 1e-05 | – | < 1e-05
44 | G44A A48U U69G | – | – | < 1e-05 | – | – | < 1e-05 | –
45 | C11G A53C | – | – | < 1e-05 | < 1e-05 | < 1e-05 | < 1e-05 | < 1e-05
46 | G37U U65G G66U | – | – | < 1e-05 | – | – | – | –
47 | C11U A12U U65C C68G | – | – | < 1e-05 | – | – | – | < 1e-05
48 | G9C A39G G40U U49C | – | – | < 1e-05 | – | – | – | < 1e-05
49 | U46G G60C | – | – | < 1e-05 | < 1e-05 | < 1e-05 | < 1e-05 | < 1e-05
50 | G9U G43U C70G | – | – | < 1e-05 | – | – | – | < 1e-05
51 | G35U G40C | – | – | < 1e-05 | < 1e-05 | < 1e-05 | < 1e-05 | < 1e-05
52 | A6U G43A G59A G60U | – | – | < 1e-05 | – | – | – | –
